5 molecules from paper PMC8390506, “Interaction of spindle assembly factor TPX2 with importins-α/β inhibits protein phase separation” (The Journal of Biological Chemistry, 2021) can be followed below.

Where only a bound is given, the exact number is not on record here.

Sequences and labels used below:
B2: importin-α/β heterodimer (complex)
chain 1: not shown
chain 2: MELVTILEKTVSPDRNELEAAQKFLEQAAVENLPTFVVELSKVLANPANSQVARVAAGLQIKNPLTSRDPDVKAQYQQRWLAIDASARGEIKTYVLRTLGTESYRPSSASQCVAGIACAEITVNQWPQLIPQLVANVTDPNSTERMKESTLEAIGYICQDIDPEQLQHKSNEILTAIIQGMRKEEPSNNVRLAATNALLNSLEFTKANFDKESERHYIMQVVCEATQCPDTRVRVAALQNLVKIMSLYYQYMETYMGPALFAITVEAMKNEIDEVALQGIEFWSNVCDEEMDLAIEASEAAEQGRPPEHTSKFYAKGALQYLVPILTQTLTKQDENDDDDDWNPCKAAGVCLMLLATCCEDDIVPHVLPFIKEHIKNPDWRYRDAAVMAFGCILEGPESCQLKPLVIQAMPTLIELMKDPSVVVRDTTAWTVGRICELLPEAAINDVYLAPLLQCLIEGLGAEPRVASNVCWAFSSLAEAAYEAADVADDQEEPSSYCLSSSFEVIVQKLLETTDRPDGHQNNLRSAAYEALMEIVKNSAKDCYPAVQKTTLVIMERLQQVLQVESHIQSTSDRIQFNDLQSLLCATLQNVLRKVQHQDALQISDVVMASLLRMFQSTAGSGGVQEDALMAVSTLVEVLGAEFLKYMEAFKPFLTIGLKNYAEYQVCLAAVGLVGDLCRALQSNILPFCDEMMQFLLENLGNENVHRSVKPQILSVFGDVALAIGGEFKKYLDVVLNTLQQASQAQVDKSDYDMVDYLNELREGCIEAYTGIIQGLKGDQENVHPDVMLVQPRVEFILSFIDHIAGDEDHTDSVVACGAGLIGDLCTAFGKDVLKLVEARPMIHELLTEGRRSKTNKTKTLATWATKELRKLKNQA
B3: importin-β (natural protein, Xenopus laevis, UniProt P52297 1-876, looked up)
chain: MELVTILEKTVSPDRNELEAAQKFLEQAAVENLPTFVVELSKVLANPANSQVARVAAGLQIKNPLTSRDPDVKAQYQQRWLAIDASARGEIKTYVLRTLGTESYRPSSASQCVAGIACAEITVNQWPQLIPQLVANVTDPNSTERMKESTLEAIGYICQDIDPEQLQHKSNEILTAIIQGMRKEEPSNNVRLAATNALLNSLEFTKANFDKESERHYIMQVVCEATQCPDTRVRVAALQNLVKIMSLYYQYMETYMGPALFAITVEAMKNEIDEVALQGIEFWSNVCDEEMDLAIEASEAAEQGRPPEHTSKFYAKGALQYLVPILTQTLTKQDENDDDDDWNPCKAAGVCLMLLATCCEDDIVPHVLPFIKEHIKNPDWRYRDAAVMAFGCILEGPESCQLKPLVIQAMPTLIELMKDPSVVVRDTTAWTVGRICELLPEAAINDVYLAPLLQCLIEGLGAEPRVASNVCWAFSSLAEAAYEAADVADDQEEPSSYCLSSSFEVIVQKLLETTDRPDGHQNNLRSAAYEALMEIVKNSAKDCYPAVQKTTLVIMERLQQVLQVESHIQSTSDRIQFNDLQSLLCATLQNVLRKVQHQDALQISDVVMASLLRMFQSTAGSGGVQEDALMAVSTLVEVLGAEFLKYMEAFKPFLTIGLKNYAEYQVCLAAVGLVGDLCRALQSNILPFCDEMMQFLLENLGNENVHRSVKPQILSVFGDVALAIGGEFKKYLDVVLNTLQQASQAQVDKSDYDMVDYLNELREGCIEAYTGIIQGLKGDQENVHPDVMLVQPRVEFILSFIDHIAGDEDHTDSVVACGAGLIGDLCTAFGKDVLKLVEARPMIHELLTEGRRSKTNKTKTLATWATKELRKLKNQA
notes: importin-β, Xenopus laevis; Construct in the Supplemental information; The UniProt entry recalled may be a fragment; also called importin-β alone; source: recombinant, purified to >95% purity
B5: Targeting Protein for XKlp2 (TPX2), full length, wild type (natural protein, Xenopus laevis, UniProt Q6NUF4 1-716, looked up)
chain: MEDTQDTYSYDAPSIFNFSSFHEDHNADSWFDQVTNAENIPPDQRRLSETSVNTEQNSKVEPVQTTPSKDDVSNSATHVCDVKSQSKRSSRRMSKKHRQKLLVKMKDTHLEKETAPPEYPPCKKLKGSSSKGRHAPVIKSQSTSSHHSMTSPKPKAQLTMPSTPTVLKRRNVLVKAKNSEEQELEKMQELQKEMLENLKKNEHSMKVAITGAGQPVKTFIPVTKPVDFHFKTDDRLKRTANQPEGDGYKAVDFASELRKHPPSPVQVTKGGHTVPKPFNLSKGKRKHEEASDYVSTAEQVIAFYKRTPARYHLRSRQREMEGPSPVKMIKTKLTNPKTPLLQTKGRHRPVTCKSAAELEAEELEMINQYKFKAQELDTRILEGGPVLLKKPLVKEPTKAIGFDLEIEKRIQQREKKEEIEEETFTFHSRPCPSKMLTDVVGVPLKKLLPVTVPQSPAFALKNRVRIPAQEEKQEEMVPVIKATRMPHYGVPFKPKLVEQRQVDVCPFSFCDRDKERQLQKEKRLDELRKDEVPKFKAQPLPQFDNIRLPEKKVKMPTQQEPFDLEIEKRGASKLQRWQQQIQEELKQQKEMVVFKARPNTVVHQEPFVPKKENRSLTESLSGSIVQEGFELATAKRAKERQEFDKCLAETEAQKSLLEEEIRKRREEEEKEEISQLRQELVHKAKPIRKYRAVEVKASDVPLTVPRSPNFSDRFKC
notes: TPX2, Xenopus laevis, full length; 1 to 716; Named GFP-TPX2 for SEC-MALS; also called GFP-TPX2; wt-TPX2; source: recombinant, purified to >95% purity

The target in the experiment “importin-β” is B3. The experiment in a line: BLI; Octet (ForteBio); TPX2 attached to sensors, importin concentration varied; normalized amplitudes; apparent Kd. The settings on record: both partners purified.
Experiment [1] deals with B5. The experiment in a line: cell-based or functional assay.
Experiment [2] has as its target B5. The experiment in a line: SEC-MALS; Superdex-200-increase 3.2/300 in line with a Wyatt light scattering machine; GFP-TPX2 alone, importin-α/β alone and TPX2 with importin-α/β (TPX2 printed as 5 M, importin-α/β 15 μM). The settings on record: both partners purified. In general terms: In gel filtration, larger molecules generally elute earlier.
The target of the next experiment is GST-importin-α (Xenopus laevis). The description is as above. The conditions noted are these: both partners purified.
For the experiment “importin-α/β heterodimer”, the target named is B2. The experiment can be described thus: BLI; Octet (ForteBio); TPX2 attached to sensors, importin concentration varied; normalized amplitudes; apparent Kd. The settings on record: both partners purified. (In general: In BLI a coated tip is dipped into the sample, and binding shifts an interference pattern.)

Sequence of GST-importin-α (Xenopus laevis) (chain, as listed by the source): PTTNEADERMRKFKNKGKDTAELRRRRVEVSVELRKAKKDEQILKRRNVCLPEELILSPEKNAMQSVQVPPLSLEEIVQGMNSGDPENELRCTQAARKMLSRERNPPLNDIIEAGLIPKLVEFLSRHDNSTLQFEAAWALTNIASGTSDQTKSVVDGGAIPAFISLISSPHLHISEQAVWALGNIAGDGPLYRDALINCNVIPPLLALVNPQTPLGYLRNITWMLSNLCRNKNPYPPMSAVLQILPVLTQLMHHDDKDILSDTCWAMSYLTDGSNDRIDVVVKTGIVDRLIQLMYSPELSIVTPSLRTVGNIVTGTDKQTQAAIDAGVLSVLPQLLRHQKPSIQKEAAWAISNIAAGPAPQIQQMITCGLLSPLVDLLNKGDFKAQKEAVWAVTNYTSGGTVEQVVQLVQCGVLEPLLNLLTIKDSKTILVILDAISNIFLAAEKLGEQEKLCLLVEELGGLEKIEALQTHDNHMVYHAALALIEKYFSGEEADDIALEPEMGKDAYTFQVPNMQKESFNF

B1: TPX2 N terminus (a.a. 1-480) (domain or fragment, Xenopus laevis, UniProt Q6NUF4 1-480, looked up)
chain: MEDTQDTYSYDAPSIFNFSSFHEDHNADSWFDQVTNAENIPPDQRRLSETSVNTEQNSKVEPVQTTPSKDDVSNSATHVCDVKSQSKRSSRRMSKKHRQKLLVKMKDTHLEKETAPPEYPPCKKLKGSSSKGRHAPVIKSQSTSSHHSMTSPKPKAQLTMPSTPTVLKRRNVLVKAKNSEEQELEKMQELQKEMLENLKKNEHSMKVAITGAGQPVKTFIPVTKPVDFHFKTDDRLKRTANQPEGDGYKAVDFASELRKHPPSPVQVTKGGHTVPKPFNLSKGKRKHEEASDYVSTAEQVIAFYKRTPARYHLRSRQREMEGPSPVKMIKTKLTNPKTPLLQTKGRHRPVTCKSAAELEAEELEMINQYKFKAQELDTRILEGGPVLLKKPLVKEPTKAIGFDLEIEKRIQQREKKEEIEEETFTFHSRPCPSKMLTDVVGVPLKKLLPVTVPQSPAFALKNRVRIPAQEEKQEEMVPVI
notes: TPX2, Xenopus laevis, amino acids 1-480 (disordered N-terminal region); also called N-terminal region (a.a. 1-480) of TPX2; source: recombinant, purified to >95% purity
For the molecule B1, the Kd in the experiment with importin-β stood at 512 ± 70 nM. In the case of B2, in experiment [1], the “inhibition of TPX2 condensation (fluorescence microscopy; TPX2 1 μM, importin-α/β in molar excess)” value came out at 2 fold excess. Moreover, the “stoichiometry N” value in experiment [2] is 1 TPX2:importin-α:importin-β. On to B3, for which the “TPX2-mediated branching microtubule nucleation in Xenopus egg cytosol (TIRF microscopy; TPX2 150 nM, importin-β 2.5x to 20x)” value in experiment [1] stood at 10 fold molar excess. Further, the “stoichiometry N” value with GST-importin-α was 1 importin-α:importin-β.

B4: TPX2 C terminus (a.a. 480-716) (domain or fragment, Xenopus laevis, UniProt Q6NUF4 480-716, looked up)
chain: IKATRMPHYGVPFKPKLVEQRQVDVCPFSFCDRDKERQLQKEKRLDELRKDEVPKFKAQPLPQFDNIRLPEKKVKMPTQQEPFDLEIEKRGASKLQRWQQQIQEELKQQKEMVVFKARPNTVVHQEPFVPKKENRSLTESLSGSIVQEGFELATAKRAKERQEFDKCLAETEAQKSLLEEEIRKRREEEEKEEISQLRQELVHKAKPIRKYRAVEVKASDVPLTVPRSPNFSDRFKC
notes: TPX2, Xenopus laevis, amino acids 480-716 (ordered C-terminal region); also called TPX2's C terminus; source: recombinant, purified to >95% purity
Regarding B4, the Kd with importin-β is over 4000 nM.

As for B5, the results for the Kd with importin-α/β heterodimer and with importin-β were 75 ± 15 nM and 530 ± 75 nM, respectively.
